# Source: US20260232732A1 (FUNDACI INSTITUT DE RECERCA CONTRA LA LEUC MIA JOSEP …, published 2026)
# Where no end group is shown, it is not given here.
# T1: Peptide 4, non-conjugated (SMEDYVNFNF-C) (human)
# T1 construct: With the extra C-terminal Cys
# T1 peptide: SMEDYVNFNFC
# T2: Peptide 2-BSA (GSESTSSMED-C conjugated to BSA) (human)
# T2 peptide: GSESTSSMEDC(BSA)
# T3: antigen peptide-BSA (immunisation peptide #1 MADDYGSESTSSMEDYVNFNF-C conjugated to BSA) (human, extra C-terminal Cys conjugated to BSA)
# T3 construct: also called Positive control antigen peptide-BSA; MADDY peptide
# T3 peptide: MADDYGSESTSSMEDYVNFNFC
# T4: Peptide 1-BSA (MADDYGSEST-C conjugated to BSA) (human)
# T4 peptide: MADDYGSESTC(BSA)
# T5: Peptide 1, non-conjugated (MADDYGSEST-C) (human)
# T5 construct: With the extra C-terminal Cys
# T5 peptide: MADDYGSESTC
# T6: Peptide 3-BSA (SSMEDYVNFN-C conjugated to BSA) (human)
# T6 peptide: SSMEDYVNFNC(BSA)
# T7: Peptide 2, non-conjugated (GSESTSSMED-C) (human)
# T7 construct: With the extra C-terminal Cys
# T7 peptide: GSESTSSMEDC
# T8: Peptide 3, non-conjugated (SSMEDYVNFN-C) (human)
# T8 construct: With the extra C-terminal Cys
# T8 peptide: SSMEDYVNFNC
# T9: Peptide 4-BSA (SMEDYVNFNF-C conjugated to BSA) (human)
# T9 peptide: SMEDYVNFNFC(BSA)
# T10: naked peptide 1a MTPTDFTSPIPNMADDYGSESTSS (human)
# T10 construct: also called region 1-24
# T10 peptide: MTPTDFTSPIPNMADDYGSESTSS
# T11: naked peptide 1b MEDYVNFNFTDFYCEKNNVRQFAS (human)
# T11 construct: also called region amino acids 25 to 48
# T11 peptide: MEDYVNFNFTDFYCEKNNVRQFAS
# B1: anti-CCR9 antibody clone 115 (murine, from hybridoma #115) (antibody, V domains shown)
# VH: QVQLKQSGPELVKPGTSVRVSCTASGYSFTDYIIYWVKQSHGRSLEWIGYIDPNNYNTRYSQKFKGKATLTVDKSSTSAFMHLNSLTSDDSAVYYCARDVYWGQGTTLTVSS
# VL: DVVMTQTPLSLTVSLGDQASISCRSSQSLVHSNGKTYLQWYLQKPGQSPKLLIYKVSNRFSGVPDRFSGSGSGTDFTLKISRVEAEDLGVYFCAQSTHVWTFGGGTKLEIKR
# notes: Mouse IgG1
# B2: Comparative antibody 1 (Comp-1) scFv, SEQ ID NO: 10 from WO2023/037125 A1, His-tagged (scFv)
# scFv: QVQLKESGPGLVQPSQTLSLTCTVSGFSVASYDMHWVRLPPGKGLEWMGIIWANGNTHYNSGLKSRLSISRDTSKSQVFLKMNSLQTEDTAIYFCTRGGFAYWGQGTLVTVSSGGGGSGGGGSGGGGSGGGGSDVVMTQTPVSLSVSLGGQVSISCRSSQSLVHNNGNTYLSWYLQKPGQSPQLLIYKVSNRFSGVSDRFSGSGSGTDFTLKISRVEPDDLGVYYCGQGTQYPTFGGGTKLELKHHHHHH
# Key:
# [1] = target: T1, Peptide 4, non-conjugated (SMEDYVNFNF-C); assay: ELISA; Ab 0.5 ug/mL; repI
# Procedure: (§1) In brief, plates with each non-conjugated peptide (50 μg/mL) or BSA-conjugated peptide (5 μg/mL) were coated in 0.58M carbonate-bicarbonate buffer pH9.5, 100 μL/well, at 4° C. […] After washing, wells were incubated with the 3, 3′,5,5′-Tetramethylbenzidine (TMB) HRP substrate and reactions were stopped with 2M HCl and OD450 was recorded.
# [2] = target: T2, Peptide 2-BSA (GSESTSSMED-C conjugated …); assay: ELISA; Ab 0.5 ug/mL; repI
# Procedure: as §1
# [3] = target: T3, antigen peptide-BSA (immunisation …); assay: ELISA; Ab 0.5 ug/mL; repI
# Procedure: as §1
# [4] = target: T4, Peptide 1-BSA (MADDYGSEST-C conjugated …); assay: ELISA; Ab 0.5 ug/mL; repI
# Procedure: as §1
# [5] = target: T5, Peptide 1, non-conjugated (MADDYGSEST-C); assay: ELISA; Ab 0.5 ug/mL; repI
# Procedure: as §1
# [6] = target: T1, Peptide 4, non-conjugated (SMEDYVNFNF-C); assay: ELISA; Ab 0.125 ug/mL; repI
# Procedure: as §1
# [7] = target: T6, Peptide 3-BSA (SSMEDYVNFN-C conjugated …); assay: ELISA; Ab 0.125 ug/mL; repI
# Procedure: as §1
# [8] = target: T7, Peptide 2, non-conjugated (GSESTSSMED-C); assay: ELISA; Ab 0.125 ug/mL; repI
# Procedure: as §1
# [9] = target: T8, Peptide 3, non-conjugated (SSMEDYVNFN-C); assay: ELISA; Ab 0.125 ug/mL; repI
# Procedure: as §1
# [10] = target: T2, Peptide 2-BSA (GSESTSSMED-C conjugated …); assay: ELISA; Ab 0.125 ug/mL; repI
# Procedure: as §1
# [11] = target: T9, Peptide 4-BSA (SMEDYVNFNF-C conjugated …); assay: ELISA; Ab 0.125 ug/mL; repI
# Procedure: as §1
# [12] = target: T3, antigen peptide-BSA (immunisation …); assay: ELISA; Ab 0.125 ug/mL; repI
# Procedure: as §1
# [13] = target: T4, Peptide 1-BSA (MADDYGSEST-C conjugated …); assay: ELISA; Ab 0.125 ug/mL; repI
# Procedure: as §1
# [14] = target: T5, Peptide 1, non-conjugated (MADDYGSEST-C); assay: ELISA; Ab 0.125 ug/mL; repI
# Procedure: as §1
# [15] = target: T1, Peptide 4, non-conjugated (SMEDYVNFNF-C); assay: ELISA; Ab 0.03125 ug/mL; repI
# Procedure: as §1
# [16] = target: T6, Peptide 3-BSA (SSMEDYVNFN-C conjugated …); assay: ELISA; Ab 0.03125 ug/mL; repI
# Procedure: as §1
# [17] = target: T7, Peptide 2, non-conjugated (GSESTSSMED-C); assay: ELISA; Ab 0.03125 ug/mL; repI
# Procedure: as §1
# [18] = target: T8, Peptide 3, non-conjugated (SSMEDYVNFN-C); assay: ELISA; Ab 0.03125 ug/mL; repI
# Procedure: as §1
# [19] = target: T2, Peptide 2-BSA (GSESTSSMED-C conjugated …); assay: ELISA; Ab 0.03125 ug/mL; repI
# Procedure: as §1
# [20] = target: T12, BSA (negative control coating) (bovine, UniProt P02769 25-607); assay: ELISA; Ab 0.03125 ug/mL; repI
# T12 construct: also called Negative control BSA
# Procedure: as §1
# [21] = target: T9, Peptide 4-BSA (SMEDYVNFNF-C conjugated …); assay: ELISA; Ab 0.03125 ug/mL; repI
# Procedure: as §1
# [22] = target: T3, antigen peptide-BSA (immunisation …); assay: ELISA; Ab 0.03125 ug/mL; repI
# Procedure: as §1
# [23] = target: T4, Peptide 1-BSA (MADDYGSEST-C conjugated …); assay: ELISA; Ab 0.03125 ug/mL; repI
# Procedure: as §1
# [24] = target: T5, Peptide 1, non-conjugated (MADDYGSEST-C); assay: ELISA; Ab 0.03125 ug/mL; repI
# Procedure: as §1
# [25] = target: T10, naked peptide 1a …; assay: ELISA, naked peptide coated
# Procedure: (§2) The peptides were synthesized naked or with a N-terminal Biotin modification with a purity of >98%. All four scFvs were verified by ELISA that can be detected with anti-His antibodies. ELISA was performed for scFv-peptide binding validation. Briefly, naked peptides were coated (50 μg/mL) in 0.58M carbonate-bicarbonate buffer pH9.5, 100 μL/well, 4° C. O/N. Then after blocking (3% BSA-PBS, 300 μL/well 37° C. 1.5 h) and washing (PBS+Tween-20 0.05% v/v (0.05% PBST), wells were incubated with each purified scFv antibody at concentration of 1 μg/mL in PBS at 37° C. 1 h. After washing (0.05% PBST), wells were incubated with secondary antibodies (goat anti-His IgG-HRP) in PBS, 37° C., 30 min. After washing, and incubation with TMB substrate, reactions were stopped with 2M HCl and reading was quantified at OD450.
# [26] = target: T11, naked peptide 1b …; assay: ELISA, naked peptide coated
# Procedure: as §2
# T12 sequence (P02769 25-607 limits assumed): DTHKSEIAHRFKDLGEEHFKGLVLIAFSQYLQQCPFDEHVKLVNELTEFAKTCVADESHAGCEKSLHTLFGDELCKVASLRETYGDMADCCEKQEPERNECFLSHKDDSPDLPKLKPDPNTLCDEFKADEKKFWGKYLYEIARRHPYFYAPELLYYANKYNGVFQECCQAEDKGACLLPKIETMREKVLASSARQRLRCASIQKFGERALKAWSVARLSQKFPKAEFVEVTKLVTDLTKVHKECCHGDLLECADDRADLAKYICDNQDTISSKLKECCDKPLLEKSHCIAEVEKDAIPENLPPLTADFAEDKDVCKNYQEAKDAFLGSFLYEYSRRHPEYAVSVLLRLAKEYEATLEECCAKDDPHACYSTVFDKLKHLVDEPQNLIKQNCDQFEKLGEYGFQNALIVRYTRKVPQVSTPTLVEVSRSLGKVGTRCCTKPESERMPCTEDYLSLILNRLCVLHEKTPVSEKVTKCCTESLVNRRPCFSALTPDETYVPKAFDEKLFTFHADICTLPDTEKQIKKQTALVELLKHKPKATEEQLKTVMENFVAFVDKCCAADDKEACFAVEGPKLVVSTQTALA
binder,measurement,setting,value
B1,OD450,[1],2.29 OD
same,OD450,[2],0.02 OD
same,OD450,[3],2.44 OD
same,OD450,[4],0.03 OD
same,OD450,[5],0.01 OD
same,OD450,[6],1.69 OD
same,OD450,[7],1.97 OD
same,OD450,[8],0.01 OD
same,OD450,[9],1.77 OD
same,OD450,[10],0.01 OD
same,OD450,[11],2.23 OD
same,OD450,[12],2.15 OD
same,OD450,[13],0.02 OD
same,OD450,[14],0.01 OD
same,OD450,[15],0.67 OD
same,OD450,[16],1.66 OD
same,OD450,[17],0.01 OD
same,OD450,[18],1.65 OD
same,OD450,[19],0.01 OD
same,OD450,[20],0.01 OD
same,OD450,[21],1.44 OD
same,OD450,[22],1.28 OD
same,OD450,[23],0.01 OD
same,OD450,[24],0.01 OD
B2,binding result,[25],no binding
same,binding result,[26],no binding
